Measured values published in PMC3753628, “Recognition and processing of double-stranded DNA by ExoX, a distributive 3′–5′ exonuclease”.

What was measured:
ExoX (NT167) [1] = biological target: T1, ExoX (NT167) (Escherichia coli K12, UniProt P0AEK0 1-167); test: X-ray crystallography; two undefined metal ions (MeA, MeB), probably inactive (Ni2+ or Na+); SeMet ExoX; 2:1 protein:DNA; Crystals by hanging drop, 16 C: complex I 0.1 M Tris-HCl pH 8.0, 0.2 M NaCl, 20% PEG 3350; complexes II and III 0.1 M MES pH 6.3, 17% PEG 6000; protein:DNA 1:0.6, 30 min at 4 C, gel filtration; details: protein: recombinant; (pET24a, Ni-NTA; chain copies: 2; text says 17 bp)
T1 sequence: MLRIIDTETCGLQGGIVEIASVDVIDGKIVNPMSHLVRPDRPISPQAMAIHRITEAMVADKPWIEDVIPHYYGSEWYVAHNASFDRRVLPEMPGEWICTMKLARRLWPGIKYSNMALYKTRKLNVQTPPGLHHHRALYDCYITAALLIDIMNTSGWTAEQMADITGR

ExoX (NT167) [2] = biological target: T1, ExoX (NT167); test: X-ray crystallography; 2 ExoX monomers per DNA; metal at MeA site; Crystals by hanging drop, 16 C: complex I 0.1 M Tris-HCl pH 8.0, 0.2 M NaCl, 20% PEG 3350; complexes II and III 0.1 M MES pH 6.3, 17% PEG 6000; protein:DNA 1:0.6, 30 min at 4 C, gel filtration; details: protein: recombinant; (pET24a, Ni-NTA); chain copies: 2; blunt
ExoX (NT167) [3] = biological target: T1, ExoX (NT167); test: X-ray crystallography; Crystals by hanging drop, 16 C: complex I 0.1 M Tris-HCl pH 8.0, 0.2 M NaCl, 20% PEG 3350; complexes II and III 0.1 M MES pH 6.3, 17% PEG 6000; protein:DNA 1:0.6, 30 min at 4 C, gel filtration; details: protein: recombinant; (pET24a, Ni-NTA); chain copies: 2; self-annealed, 2 copies of S2; 5' overhang 5 nt, mispaired 3' terminal nucleotides

B1: 3' overhanging dsDNA (complex I) (dsDNA)
DNA 1: CGGATCCACAATGACCT
DNA 2: GTCATTGTGGATCCGAG
B1: binds (ExoX (NT167) [1]).

B2: 12 bp blunt-ended dsDNA (complex II) (dsDNA)
DNA 1: CTCGAATCTACA
DNA 2: TGTAGATTCGAG
B2: binds (ExoX (NT167) [2]).

B3: 3' recessed mismatch-containing dsDNA (complex III) (dsDNA)
DNA 1: GTCATTGTGGATCCGAG
DNA 2: GTCATTGTGGATCCGAG
B3: binds (ExoX (NT167) [3]).
